The text below walks through data of patent US20260152567A1 (CSPC MEGALITH BIOPHARMACEUTICAL, published 2026).

The target of assay [1] is T1, C-terminal portion of the CD73 protein (Homo sapiens (Human), UniProt P21589 337-549).
T1 construct: also called CD73 C-terminal protein; C-terminus of the CD73 protein
T1 sequence: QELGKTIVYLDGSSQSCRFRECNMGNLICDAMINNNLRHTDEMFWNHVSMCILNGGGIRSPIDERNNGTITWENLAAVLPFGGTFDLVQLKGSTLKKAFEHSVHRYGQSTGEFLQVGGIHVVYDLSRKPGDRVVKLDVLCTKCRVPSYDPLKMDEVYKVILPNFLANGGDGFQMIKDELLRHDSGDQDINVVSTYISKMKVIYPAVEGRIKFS
The assay can be described thus: ELISA, plate coated with CD73 C-terminal protein at 1 µg/mL. On the procedure:
(§1) In this example, the C-terminal portion (SEQ ID NO. 41) and the N-terminal portion (SEQ ID NO. 42) of the CD73 protein were separately constructed, and the epitopes recognized by the antibodies were detected by ELISA method. Elisa plates were respectively coated with the CD73 N-terminal and C-terminal proteins at a concentration of 1 μg/mL. The test antibodies were diluted in a gradient.
(ELISA stands for enzyme-linked immunosorbent assay.)

The target of assay [2] is T2, human CD73 on the cell surface (MDA-MB-231 and SKOV3 tumor cells) (human, UniProt P21589 27-549).
T2 construct: whole, on cells; also called cell surface CD73; CD73 on the surface of human tumor cells
T2 sequence (looked up): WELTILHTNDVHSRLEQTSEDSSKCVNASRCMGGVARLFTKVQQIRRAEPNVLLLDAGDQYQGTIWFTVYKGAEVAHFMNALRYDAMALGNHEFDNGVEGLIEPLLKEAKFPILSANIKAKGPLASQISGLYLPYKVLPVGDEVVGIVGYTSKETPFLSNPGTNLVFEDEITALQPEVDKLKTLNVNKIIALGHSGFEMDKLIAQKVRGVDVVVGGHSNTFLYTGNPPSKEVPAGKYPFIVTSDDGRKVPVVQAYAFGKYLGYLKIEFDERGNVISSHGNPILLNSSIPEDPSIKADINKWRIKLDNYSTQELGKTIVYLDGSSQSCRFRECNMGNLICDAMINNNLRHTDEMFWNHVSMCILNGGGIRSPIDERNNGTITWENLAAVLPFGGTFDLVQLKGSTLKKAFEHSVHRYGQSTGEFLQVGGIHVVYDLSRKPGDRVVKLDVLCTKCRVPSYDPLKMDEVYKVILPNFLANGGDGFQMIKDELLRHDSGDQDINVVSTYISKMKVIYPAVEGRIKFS
Kind of assay: flow cytometry on MDA-MB-231 cells. The procedure:
In this example, the exemplary antibodies of the present application were compared with anti-CD73 antibodies described in other patent applications. Antibodies MEDI9447 and Hu101-28 (with CDR sequences from PCT patent applications WO 2016/075099 and WO 2018/137598, respectively) were cloned into eukaryotic expression vectors containing the hIgG1-kappa constant region. The binding ability of the humanized antibodies Hab7C3C2.5 and Hab1F2F9.15 to cell surface CD73 was assessed using tumor cell lines MDA-MB-231 and SKOV3 which endogenously express human CD73 on the cell surface. The cells were seeded in a 96-well plate at a density of 2×10⁶ cells/mL, with 100 μL per well. 4-fold gradient dilutions (0-100 nM) of the antibodies were added, and the mixture was incubated at 4° C. for 1 h. A goat anti-human secondary antibody was added, and the mixture was incubated at 4° C. in the dark for 50 min for labeling. The fluorescence intensity of the cells was then measured by a flow cytometer.
In general terms: Flow cytometry measures light scatter and fluorescence of single cells or particles in a stream.

Assay [3] deals with T3, N-terminal portion of the CD73 protein (Homo sapiens (Human), UniProt P21589 27-317, limits assumed).
T3 construct: also called CD73 N-terminal protein; N-terminus of the CD73 protein
T3 sequence: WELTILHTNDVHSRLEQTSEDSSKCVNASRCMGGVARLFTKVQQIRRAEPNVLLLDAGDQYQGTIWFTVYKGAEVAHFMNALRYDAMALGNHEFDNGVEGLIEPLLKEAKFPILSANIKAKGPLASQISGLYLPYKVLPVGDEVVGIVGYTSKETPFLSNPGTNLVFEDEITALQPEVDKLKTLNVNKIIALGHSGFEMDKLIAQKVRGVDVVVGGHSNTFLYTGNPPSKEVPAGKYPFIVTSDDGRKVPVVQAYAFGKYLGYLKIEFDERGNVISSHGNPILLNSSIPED
The assay can be described thus: ELISA, plate coated with CD73 N-terminal protein at 1 µg/mL. On the procedure: as §1

Assay [4] has as its target T4, recombinant human CD73 protein (human, UniProt P21589 27-547).
T4 construct: Bought soluble protein; The background says that CD73 forms a homodimer; also called soluble CD73; free CD73 protein
T4 sequence (looked up): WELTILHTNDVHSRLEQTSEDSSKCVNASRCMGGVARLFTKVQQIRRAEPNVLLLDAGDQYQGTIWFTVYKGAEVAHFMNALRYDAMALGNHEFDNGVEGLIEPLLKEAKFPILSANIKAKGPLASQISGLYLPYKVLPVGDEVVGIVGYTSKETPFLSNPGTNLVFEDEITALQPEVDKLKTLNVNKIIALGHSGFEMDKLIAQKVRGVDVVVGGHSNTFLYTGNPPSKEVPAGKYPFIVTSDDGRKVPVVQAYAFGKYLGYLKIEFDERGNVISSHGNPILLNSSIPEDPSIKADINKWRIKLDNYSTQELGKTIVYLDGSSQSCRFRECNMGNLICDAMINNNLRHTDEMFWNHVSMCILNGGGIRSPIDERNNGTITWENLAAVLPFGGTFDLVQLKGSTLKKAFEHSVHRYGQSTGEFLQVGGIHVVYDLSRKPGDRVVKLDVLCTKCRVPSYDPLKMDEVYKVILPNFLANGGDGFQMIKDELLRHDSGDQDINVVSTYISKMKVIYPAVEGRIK
The assay can be described thus: BLI (Fortebio), human CD73 on HIS1K biosensors, antibody as analyte. On the procedure:
The humanized antibody VH and VL were separately constructed into eukaryotic expression vectors containing the hIgG1-kappa constant region with L234A, L235A, P329A and P331S mutations (abbreviated as hIgG1 in the present application). The affinity of all humanized antibodies was assayed in this example. Human CD73 protein was immobilized onto HIS1K biosensors to achieve a binding response threshold of 0.3 nm. After a 120-second baseline step, the sensors were separately immersed in anti-CD73 antibody analytes diluted in a gradient with a 0.02% PBST buffer (each antibody was diluted in a 2-fold gradient with an initial concentration of 25 nM, resulting in 7 concentration gradients). The times for the ligand-analyte binding and dissociation were 120 s and 300 s, respectively. The data of the antigen-antibody affinity were calculated by regression according to the binding curves using an analysis software.
In general terms: Biolayer interferometry detects binding as a change in optical thickness at a sensor tip.

The target of assay [5] is T4, recombinant human CD73 protein. Kind of assay: cell-based or functional assay.
The target in assay [6] is T2, human CD73 on the cell surface …. The assay can be described thus: cell-based or functional assay.

B1: Hab1F2F9.15 (antibody, human IgG1, kappa, L234A L235A, V domains shown)
VH: QVQLVQSGAEVKKPGASVKVSCKASGYTFTSYWMHWVRQAPGQRLEWMGNINPSNGGTKYSQKFQGRVTITVDTSASTAYMELSSLRSEDTAVYYCARRDYGSPSYWGQGTTVTVSS
VL: DIQMTQSPSSLSASVGDRVTITCKASQDINSYLTWFQQKPGKAPKSLIYRTNILLDGVPSRFSGSGSGTDYTLTISSLQPEDFATYYCLQYHEFPVTFGGGTKLEIKR
notes: Humanized 1F2F9; also called Huab1F2F9.15; HuablF2F9.15
By EC50 is commonly meant the concentration needed to bring the measured effect to its halfway point. A high value points to lower potency in that assay. The Kd is a measure of binding affinity in units of concentration. For orientation: koff means the first-order rate constant of dissociation. By kon is commonly meant the rate constant with which the complex forms. Take B1: in assay [1], the binding result is “no binding”. The midpoint of the response in assay [2], the EC50, lay at 0.48 nM. Moreover, the binding result in assay [3] is on record as “no binding”. In assay [4], the Kd was determined as 0.779 nM, the koff amounted to 0.0016 s⁻¹ and the kon amounted to 2.06e+06 M⁻¹ s⁻¹. Besides, the “Protein enzymatic activity inhibition IC50” value in assay [5] stood at 0.011 nM. Besides, the “Cellular enzymatic activity inhibition IC50” value in assay [6] is 0.069 nM.

B2: Hab7C3C2.5 (antibody, human IgG1, kappa, L234A L235A, V domains shown)
VH: QVQLVQSGAEVKKPGASVKVSCKASGYTFTSYDINWVRQATGQGLEWIGWIYPRDGFTKYNEKFKGRVTLTVNTSISTAYMELSSLRSEDTAVYYCARKEGYRGDWYFDVWGQGTTVTVSS
VL: DIQMTQSPSSLSASVGDRVTITCRASGNVHNYLAWYQQKPGKAPKLLLYNAKTLASGVPSRFSGSGSGTDYTLTISSLQPEDFATYYCQHFWSTPWTFGGGTELEIKR
notes: Humanized 7C3C2; also called Hab7C3C.5
B2: in assay [1], the binding result is reported as “no binding”. Besides, in assay [2], the EC50 is 0.41 nM. Moreover, the binding result in assay [3] is listed as “no binding”. For the same molecule, in assay [4], the Kd came to 0.765 nM, the koff was found to be 0.00272 s⁻¹ and the kon amounted to 3.56e+06 M⁻¹ s⁻¹. The “Protein enzymatic activity inhibition IC50” value in assay [5] came out at 0.018 nM. The “Cellular enzymatic activity inhibition IC50” value in assay [6] was determined as 0.027 nM.
